Consider two molecules from patent US9447149B2, “Methods and compositions for the rapid synthesis of radiometal-labeled probes” (University of Southern California, priority 2012, dated 2016).

A short description of series [1]: Partition coefficient (1-octanol/PBS). In kind it is physicochemical. To be noted: 1-octanol / PBS pH 7.4, triplicate. The method, then: The partition coefficient value was expressed as log P. Log P of [^64Cu]1 was determined by measuring the distribution of radioactivity in 1-octanol and PBS. Approximately 111 kBq of [^64Cu]1 in 2 μL of PBS (pH=7.4) was added to a vial containing 0.5 mL 1-octanol and 0.5 mL of PBS (pH=7.4). After vigorously vortexing for 10 min, the vial was centrifuged at 12,500 rpm for 5 min to ensure the complete separation of layers. 200 μL of each layer was pipetted into test tubes, and radioactivity was measured using a gamma counter (Perkin-Elmer Packard Cobra). The mean value was calculated from triplicate experiments. The log P value of [^64Cu]1 was determined to be […].

Series [2] concerns U87MG human glioma xenograft tumors. The experiment in a line: in vivo. Also on record: species or system mice. Particulars: mouse, 10 mg/kg. The method, then:
(§1) The in vivo tumor-targeting efficacy of [^64Cu]1 was evaluated in nude mice bearing U87MG human glioma xenograft tumors (n=3) by static microPET scans at 2, 4, and 20 h after tail-vain injection of [^64Cu]1. U87MG tumors were clearly visualized at all time points examined. […] At 2 h post injection, the tumor/liver, tumor/kidneys, and tumor/muscle ratios reached 2.82±0.76, 2.22±1.49, and 11.79±2.65, respectively. Consequently, the high tumor-to-nontumor ratios provided excellent contrast for PET imaging. Blocking experiment was conducted to confirm the integrin αvβ3 specificity of [^64Cu]1.
(§2) All animal studies were approved by the University of Southern California Institutional Animal Care and Use Committee. Female athymic nude mice (about 4-6 weeks old, with a body weight of 20-25 g) were obtained from Harlan Laboratories (Livermore, Calif.). The U87MG human glioma xenograft model was generated by subcutaneous injection of 5×10^6 U87MG human glioma cells into the front flank of female athymic nude mice. The tumors were allowed to grow 3-5 weeks until 200-500 mm^3 in volume. Tumor growth was followed by caliper measurements of the perpendicular dimensions.
(§3) MicroPET scans and imaging analysis were performed using a rodent scanner (microPET R4 scanner; Siemens Medical Solutions). About 7.4 MBq of [^64Cu]1 was intravenously injected into each mouse (n=3) under isoflurane anesthesia. Five-minute static scans were acquired at 2, 4, and 20 h pi. The images were reconstructed by a two-dimensional ordered-subsets expectation maximum (OSEM) algorithm. For each microPET scan, regions of interest were drawn over the tumor, normal tissue, and major organs on the decay-corrected whole-body coronal images. The radioactivity concentration (accumulation) within the tumor, muscle, liver, and kidneys were obtained from the mean value within the multiple regions of interest and then converted to % ID/g.

The nature of a further series: in vivo. Also on record: species or system mice. Particulars: female, athymic nude, mouse, iv, 7.4 MBq, total radioactivity. How it is done: as §1, §2, §3
Series [3] can be described thus: Probe stability in PBS by radio-HPLC. In kind it is physicochemical. To be noted: for parent [64Cu]1 remaining (radiochemical purity): PBS, room temperature. How it is done:
The in vitro stability of [^64Cu]1 was evaluated in PBS buffer by radio-HPLC. […] This high stability is attributed to Sar cage in the conjugate. In addition, it is known that the U87MG cell line over-expresses integrin αvβ3 receptor [13].
All chemicals and solvents were obtained from Aldrich (Milwaukee, Wis., USA) and used without further purification. 1,8-Diamino-3,6,10,13,16,19-hexaazabicyclo[6.6.6]-eicosine was purchased from Areva Med (Dallas, Tex.). ^125I-Echistatin was obtained from Perkin-Elmer (Waltham, Mass.). ^1H and ^13C nuclear magnetic resonance (NMR) were recorded on a Varian 400 MHz spectrometer. Mass spectrum was obtained on a ThermoElectron Finnigan LTQ mass spectrometer equipped with an electrospray ionization (ESI) source (Thermo Scientific, USA). HPLC analyses were carried out on an analytical reversed-phase high performance liquid chromatography (HPLC) system equipped with a dual UV absorbance detector (Waters 2487) using a phenomenex C18 RP (250×4.6 mm 5 micron). The flow was 1 mL/min, with the mobile phase starting from 100% solvent A (0.1% TFA in water), followed by a gradient mobile phase to 20% solvent A and 80% solvent B (0.1% TFA in acetonitrile) at 30 min. The UV absorbance was monitored at 214 nm and the identification of the peptides was confirmed based on the UV spectrum using a PDA detector. The radioactivity was detected by a model of Ludlum 2200 single-channel radiation detector. The stability study was performed under the same HPLC condition. MicroPET scans were performed on a microPET R4 rodent model scanner (Siemens Medical Solutions USA, Inc., Knoxyille, Tenn.). The scanner has a computer-controlled bed and 10.8-cm transaxial and 8-cm axial fields of view (FOVs). It has no septa and operates exclusively in the 3-dimensional (3D) list mode. Animals were placed near the center of the FOV of the scanner.
The stability of [^64Cu]1 was tested in PBS. In brief, 3.7 MBq of the [^64Cu]1 was pipetted into 0.5 mL of the PBS and incubated in PBS at room temperature. At various time points (1, 6, and 24 h), an aliquot of the solution was taken and the radiochemical purity was determined by reverse-phase HPLC under identical conditions. The parent [^64Cu]1 was determined to be >99%, 98%, and 96% at 1, 6, and 24 h, respectively.

A further series has as its target T1, integrin αvβ3 (Homo sapiens, UniProt P05106+P06756).
T1 construct: host or cells: U87MG human glioblastoma cells (whole cells in suspension)
The experiment in a line: Integrin αvβ3 receptor binding assay (competitive displacement of 125I-echistatin on U87MG cells). To be noted: 125I-echistatin radioligand, 3 h, room temperature. On the technique in general: Loss of bound radioactivity is the signal in a displacement assay; it reports binding, not function.

By logP is commonly meant a log measure of how a compound divides between an organic and an aqueous phase. Broadly, the tissue uptake is the share of the injected amount in each gram of the tissue. On to `N=C(N)NCCC[C@@H]1NC(=O)[C@H](CCCCNC(=O)[C@H]2O[C@@H](CNC(=O)Cn3nnc4c3-c3ccccc3CN(C(=O)CCNC(=O)CCOCCOCCOCCOCCOCCC(=O)NC35CNCCNCC(N)(CNCCNC3)CNCCNC5)c3ccccc3-4)[C@H](O)[C@@H](O)[C@H]2O)NC(=O)[C@@H](Cc2ccccc2)NC(=O)[C@H](CC(=O)O)NC(=O)CNC1=O` [[^64Cu]1, metal not drawn], for which, in series [1], the logP amounted to 4.94 ± 0.1. The “uptake values of normal organs (liver, kidneys, muscle) with blocking” value in series [2] is on record as “lower than those without coinjection of c(RGDyK)”. For the same molecule, the tissue uptake at 2 h in the series “in vivo” came to 4.96 ± 0.65 %ID/g. The tissue uptake at 4 h in the series “in vivo” stood at 4.11 ± 0.48 %ID/g. In addition, the tissue uptake at 20 h in the series “in vivo” was found to be 2.41 ± 0.31 %ID/g. In addition, the tissue to tissue ratio at 2 h in the series “in vivo” (tumor/kidneys ratio) worked out at 2.22 ± 1.49; in “in vivo” (tumor/liver ratio) it was 2.82 ± 0.76; in “in vivo” (tumor/muscle ratio), 11.8 ± 2.65. Also, in series [3] (PBS buffer, over a period of 24 h, radio-HPLC), the “release of 64Cu from the conjugate” value is reported as “no release of ^64Cu from the conjugate”. In addition, the “parent [64Cu]1 remaining (radiochemical purity)” value in series [3] (1 h) is listed as over 99%; in series [3] (6 h) it was 98%; in series [3] (24 h) it was 96%.

As usually defined, the IC50 is the point on the concentration scale where inhibition reaches its midpoint. Regarding `N=C(N)NCCC[C@@H]1NC(=O)[C@H](CCCCNC(=O)C2O[C@H](CNC(=O)Cn3nnc4c3-c3ccccc3CN(C(=O)CCNC(=O)CCOCCOCCOCCOCCOCCC(=O)N[C@]35CNCCNC[C@](N)(CNCCNC3)CNCCNC5)c3ccccc3-4)[C@H](O)C(O)[C@@H]2O)NC(=O)[C@@H](Cc2ccccc2)NC(=O)[C@H](CC(=O)O)NC(=O)CNC1=O` (stereo partly shown) [compound 1], the IC50 at integrin αvβ3 amounted to 170 ± 3 nM.
